Patent publication US20240352133A1
Positions count from the first letter of the chain named.

B1: VRDN-03102 (antibody, V domains shown)
VH: QVQLVESGGGVVQPGRSLRLSCAASGFTFSDYTMHWVRQAPGKGLEWVAIIWFDGSSKYYVDSVKGRFTISRDNSKNTLYLQMNSLRAEDTAVYYCARELGRRYFDIWGRGTLVTVSS
VL: EIVLTQSPATLSLSPGERATLSCRASQGVSSYLAWYQQKPGQAPRLLIYGASTRATGIPARFSGSGSGTDFTLTISSLEPEDFAVYYCQQRSRWPPWTFGQGTKLEIK
B2: VRDN-03110 (antibody, V domains shown)
VH: B1 VH with V61A
VL: B1 VL with L4M, L13V, D70E, E79Q, P80S
B3: VRDN-03114 (antibody, V domains shown)
VH: B1 VH with Y32H, T33Y, H35D
VL: B1 VL with L4M, L13V, D70E, E79Q, P80S
B4: VRDN-03112 (antibody, V domains shown)
VH: B1 VH with V61P, D62G
VL: B1 VL with L4M, L13V, D70E, E79Q, P80S
B5: VRDN-03103 (antibody, V domains shown)
VH: B1 VH with V61P, D62G
VL: B1 VL
B6: VRDN-03106 (antibody, V domains shown)
VH: B1 VH with Y32H, T33Y, H35D, V61P, D62G
VL: B1 VL
B7: VRDN-03111 (antibody, V domains shown)
VH: B1 VH
VL: B1 VL with L4M, L13V, D70E, E79Q, P80S
B8: VRDN-03104 (antibody, V domains shown)
VH: B1 VH with Y32H, T33Y, H35D, V61A
VL: B1 VL
B9: VRDN-03109 (antibody, V domains shown)
VH: B1 VH with D31S, T33S, V61P, D62G
VL: B1 VL with L4M, L13V, D70E, E79Q, P80S
B10: VRDN-03105 (antibody, V domains shown)
VH: B1 VH with Y32H, T33Y, H35D
VL: B1 VL
B11: VRDN-03108 (antibody, V domains shown)
VH: B1 VH with D31S, T33S
VL: B1 VL with L4M, L13V, D70E, E79Q, P80S
B12: VRDN-03107 (antibody, V domains shown)
VH: B1 VH with D31S, T33S, V61A
VL: B1 VL with L4M, L13V, D70E, E79Q, P80S
B13: VRDN-03113 (antibody, V domains shown)
VH: B1 VH with Y32H, T33Y, H35D, V61A
VL: B1 VL with L4M, L13V, D70E, E79Q, P80S

What follows are binders tested against Recombinant human his-tagged IGF 1R extracellular domain protein (human) (UniProt P08069) (assay: SPR, captured antibody, pH 7.4).

Binder	Kd [nM]	koff [s⁻¹]	kon [M⁻¹ s⁻¹]
B1	2.68	0.000173	64500
B2	3.45	0.000209	60500
B3	33.4	0.000991	29700
B4	2.97	0.000322	109000
B5	12.8	0.00637	498000
B6	16.1	0.00105	65100
B7	4.71	0.000362	77000
B8	3.05	0.000259	85000
B9	6.74	0.000286	42500
B10	0.89	0.000361	405000
B11	3.97	0.000195	49000
B12	2.69	0.000156	58000
B13	2.76	0.00388	1.41e+06

These binders were tested against Recombinant human his-tagged IGF 1R extracellular domain protein (human) (UniProt P08069) (assay: SPR, captured antibody, dissociation at pH 6).

Binder	Kd [nM]	koff [s⁻¹]	kon [M⁻¹ s⁻¹]
B1	1.46	0.000319	218000
B2	1.7	0.000378	223000
B3	0.0565	6.9e-06	122000
B4	2.74	0.000463	169000
B5	1.44	0.00216	1.5e+06
B6	1.81	0.00218	1.2e+06
B7	2.06	0.000479	233000
B8	1.63	0.000283	173000
B9	2.72	0.00049	180000
B10	1.99	0.000281	141000
B11	1.85	0.000413	224000
B12	1.42	0.000344	242000
B13	2.48	0.00191	771000
